Article PMC10661074 (Protein Science : A Publication of the Protein Society, 2023)
Substitutions are numbered along the chain they refer to.

B1: HFt‐W4 (natural protein, human, UniProt P02794 1-183, looked up)
chain: MTTASTSQVRQNYHQDSEAAINRQINLELYASYVYLSMSYYFDRDDVALKNFAKYFLWQSWEEREHAEKLMKLQNQRGGRIFLQDIKKPDCDDWESGLNAMECALHLEKNVNQSLLELHKLATDKNDPWLCDFIETHYLNEQVKAIKELGDWVTNLRKMGAPESGLAEYLFDKHTLGDSDNES
notes: human ferritin heavy chain (H ferritin) with four substitutions to tryptophan; synthetic gene in pET22b; 24-mer cage; In the BLI experiment the cage was loaded with ellipticine (a small molecule, about 98 molecules per cage) by a pH jump; the protein is the same; also called HFt‐W4 mutant; hydrophobicity‐enhanced ferritin nanoparticle; source: E. coli, purified (ammonium sulfate fractionation, …)
B2: HFt‐W6 (natural protein, human, UniProt P02794 1-183, looked up)
chain: B1 chain with Y138W, F171W
notes: human ferritin heavy chain (H ferritin) with six substitutions to tryptophan; synthetic gene in pET22b; 24-mer cage as purified; also called HFt‐W6 mutant; source: E. coli, purified (ammonium sulfate fractionation, heat treatment at 70°C, DNase, Superdex 200 SEC); copies: 24

Columns and labels:
[1] = molecular target: the molecule itself; experiment: SEC; analytical HP‐SEC, Agilent AdvanceBio SEC 300 Å column, phosphate‐buffered saline pH 7.4, 1.0 mL/min, UV 220 and 280 nm; purified ferritins before the pH jump
His‐tagged TfR1 = molecular target: T1, His‐tagged TfR1 (UniProt P02786 101-760); experiment: BLI; Octet N2; His‐tagged TfR1 (50 μg/mL) immobilised on Ni‐NTA biosensors; HFt 25–500 nM or HFt‐W4 loaded with ellipticine 50–400 nM in solution; single exponential fits; conditions: both partners purified
T1 construct: transferrin receptor 1 (TfR1); No catalogue number is printed; also called transferrin receptor TfR1; TfR1 receptor; source: bought: Merck
T1 sequence (P02786 101-760): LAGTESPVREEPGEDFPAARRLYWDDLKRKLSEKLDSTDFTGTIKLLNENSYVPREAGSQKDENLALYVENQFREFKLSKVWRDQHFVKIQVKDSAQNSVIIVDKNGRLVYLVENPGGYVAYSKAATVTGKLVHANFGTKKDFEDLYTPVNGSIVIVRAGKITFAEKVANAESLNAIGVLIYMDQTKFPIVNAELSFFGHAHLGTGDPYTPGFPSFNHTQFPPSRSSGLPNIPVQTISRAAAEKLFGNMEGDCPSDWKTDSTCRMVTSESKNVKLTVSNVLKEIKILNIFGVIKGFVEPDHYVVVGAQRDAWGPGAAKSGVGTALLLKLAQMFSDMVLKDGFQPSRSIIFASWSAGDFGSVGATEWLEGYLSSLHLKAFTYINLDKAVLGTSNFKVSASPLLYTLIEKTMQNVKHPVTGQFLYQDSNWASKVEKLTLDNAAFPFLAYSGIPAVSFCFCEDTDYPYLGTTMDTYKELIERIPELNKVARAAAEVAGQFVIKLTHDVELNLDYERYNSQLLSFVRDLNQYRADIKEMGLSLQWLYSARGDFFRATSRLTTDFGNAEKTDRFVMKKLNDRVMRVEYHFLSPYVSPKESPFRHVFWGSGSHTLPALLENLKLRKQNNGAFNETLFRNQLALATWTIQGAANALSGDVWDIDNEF

Binder	stoichiometry N [1]	Kd (His‐tagged TfR1)
B1	24	25 nM
B2	24	–
